Laboratory results from PMC11582362.

System: chimeric ADAR1-dsRBD3/Xlrbpa-dsRBD2 (Homo sapiens / Xenopus laevis?)
Experiment: ITC
Details: N = 3.05 ± 0.31; ITC: 25 mM Na-phosphate pH 7.0, 100 mM NaCl, 2 mM 2-mercaptoethanol, 25 °C; 2.25 uM dsRNA in cell, 80 uM protein in syringe

Sequence “GGGAUCAAUAUGCUAAGCGAUCCC / GGGAUCGCUUAGCAUAUUGAUCCC [24 bp dsRNA duplex]” has a Kd of 500 nM.
